The RNAGym collection of RNA variant scans (doi:10.7554/elife.80360)

B1: Hairpin Ribozyme (parent)
chain: GUCCUCUUUCACGUGCGCGUGAAAGAGAGAAGUGAACCAGAGAAACACACGUUGUGGUAUAUUACCUGGUA

Variants of: B1
Assay: self-cleavage, relative activity (ratio to wild type); higher = more cleavage; co-transcriptional

First: GUCCUCUUUCACGUGCGCGUGAAAGAGAGAAGUGAACCCGAGAAACACACGUCGUGGUAUAUUACCUGGUA
Second: GUCCUCUUUCACGUGCGCGUGAAAGAGAGAAGUGAACCGGAGCAACACACGUUGUGGUAUAUUACCUGGUA
The self-cleavage of the first is higher: 0.42 for the first, 0.137 for the second.

Going from GUCCUCUUUCACGUGCGCGUGAAAGAGAGAAGUGAACCCGAGAAACACACGUUGUGGUAUAUUACCUGAUA to GUCCUCUUUCACGUGCGCGUGAAAGAGAGAAGUGAACCCGAGAAACACACGUUGUGGUAUAUCACCUGGUA, the self-cleavage falls from 0.168 to 0.122.

Compared with GUCCUCUUUCACGUGCGCGUGAAAGAGAGAAGUGAACCUGAGAAACACACGUUGUGGUAUAAUACCUGGUA, GUCCUCUUUCACGUGCGCGUGAAAGAGAGAAGUGAACCGGAGAAACACACGUAGUGGUAUAUUACCUGGUA is higher in self-cleavage: 0.126 for the first, 0.295 for the second.

Compared with GUCCUCUUUCACGUGCGCGUGAAAGAGAGAAGUGAACCAAGGAAACACACGUUGUGGUAUAUUACCUGGUA, GUCCUCUUUCACGUGCGCGUGAAAGAGAGAAGUGAACCAAUGAAACACACGUUGUGGUAUAUUACCUGGUA is higher in self-cleavage: 0.263 for the first, 0.608 for the second.

First: GUCCUCUUUCACGUGCGCGUGAAAGAGAGAAGUGAACCCGAGAAACACACGUUCUGGUAUAUUACCUGGUA
Second: GUCCUCUUUCACGUGCGCGUGAAAGAGAGAAGUGAACCGGAGAAACACACGUUGUGGAAUAUUACCUGGUA
The self-cleavage of the first is lower: 0.213 for the first, 0.217 for the second.

Going from GUCCUCUUUCACGUGCGCGUGAAAGAGAGAAGUGAACCGGAGAAACACACGUUGUGGGAUAUUACCUGGUA to GUCCUCUUUCACGUGCGCGUGAAAGAGAGAAGUGAACCUGAGAAACACACGUUGUGGUAUAUUAGCUGGUA, the self-cleavage rises from 0.114 to 0.232.

Compared with GUCCUCUUUCACGUGCGCGUGAAAGAGAGAAGUGAACCGGAGAAACACUCGUUGUGGUAUAUUACCUGGUA, GUCCUCUUUCACGUGCGCGUGAAAGAGAGAAGUGAACCCGAGAAACACACGUUGUAGUAUAUUACCUGGUA is higher in self-cleavage: 0.0948 for the first, 0.193 for the second.

Going from GUCCUCUUUCACGUGCGCGUGAAAGAGAGAAGUGAACCUGAGAAACACACGUUGUGGUAUAUUACCUGGUU to GUCCUCUUUCACGUGCGCGUGAAAGAGAGAAGUGAACCGGAGAAACACACGUUGUGGUCUAUUACCUGGUA, the self-cleavage falls from 0.19 to 0.122.

Going from GUCCUCUUUCACGUGCGCGUGAAAGAGAGAAGUGAACCGGAGAAACACACGUUGUGGUGUAUUACCUGGUA to GUCCUCUUUCACGUGCGCGUGAAAGAGAGAAGUGAACCGGAGAAACACACGUUGUGGUAUAUUAGCUGGUA, the self-cleavage rises from 0.116 to 0.152.

Going from GUCCUCUUUCACGUGCGCGUGAAAGAGAGAAGUGAACCCGAGAAACACACGUUGUGGUAUAUUACCUCGUA to GUCCUCUUUCACGUGCGCGUGAAAGAGAGAAGUGAACCUGAGAAACACACGUCGUGGUAUAUUACCUGGUA, the self-cleavage rises from 0.191 to 0.508.

Going from GUCCUCUUUCACGUGCGCGUGAAAGAGAGAAGUGAACCGGAGAAACACACGCUGUGGUAUAUUACCUGGUA to GUCCUCUUUCACGUGCGCGUGAAAGAGAGAAGUGAACCGGAGAAACACACGGUGUGGUAUAUUACCUGGUA, the self-cleavage rises from 0.26 to 0.3.

First: GUCCUCUUUCACGUGCGCGUGAAAGAGAGAAGUGAACCUGAGAAACACACGUUGUGGUAUAUUACCUUGUA
Second: GUCCUCUUUCACGUGCGCGUGAAAGAGAGAAGUGAACCUGAGAAACACACGUUGUGGUAUAUUGCCUGGUA
The self-cleavage of the first is higher: 0.225 for the first, 0.116 for the second.

First: GUCCUCUUUCACGUGCGCGUGAAAGAGAGAAGUGAACCAAAGAAACACACGUUGUGGUAUAUUACCUGGUA
Second: GUCCUCUUUCACGUGCGCGUGAAAGAGAGAAGUGAACCUGAGAAACACACGUUGUGGUAUAUUACUUGGUA
The self-cleavage of the first is higher: 0.329 for the first, 0.213 for the second.

Compared with GUCCUCUUUCACGUGCGCGUGAAAGAGAGAAGUGAACCUGAGAAACACACGUUGUCGUAUAUUACCUGGUA, GUCCUCUUUCACGUGCGCGUGAAAGAGAGAAGUGAACCUGAGAAACACACGUUGUUGUAUAUUACCUGGUA is higher in self-cleavage: 0.169 for the first, 0.189 for the second.

Going from GUCCUCUUUCACGUGCGCGUGAAAGAGAGAAGUGAACCGGAGAAACACACUUUGUGGUAUAUUACCUGGUA to GUCCUCUUUCACGUGCGCGUGAAAGAGAGAAGUGAACCGGAGAAACACACCUUGUGGUAUAUUACCUGGUA, the self-cleavage falls from 0.36 to 0.232.

Going from GUCCUCUUUCACGUGCGCGUGAAAGAGAGAAGUGAACCAAAGCAACACACGUUGUGGUAUAUUACCUGGUA to GUCCUCUUUCACGUGCGCGUGAAAGAGAGAAGUGAACCUGAGAAACACACGUUUUGGUAUAUUACCUGGUA, the self-cleavage rises from 0.147 to 0.163.

First: GUCCUCUUUCACGUGCGCGUGAAAGAGAGAAGUGAACCGGAGAAACACACGUUGUGGUAUAUUACCUUGUA
Second: GUCCUCUUUCACGUGCGCGUGAAAGAGAGAAGUGAACCCGAGAAACACACGUUGUGUUAUAUUACCUGGUA
The self-cleavage of the first is lower: 0.107 for the first, 0.16 for the second.

First: GUCCUCUUUCACGUGCGCGUGAAAGAGAGAAGUGAACCCGAGAAACACACGUUGUGCUAUAUUACCUGGUA
Second: GUCCUCUUUCACGUGCGCGUGAAAGAGAGAAGUGAACCCGAAAAACACACGUUGUGGUAUAUUACCUGGUA
The self-cleavage of the first is lower: 0.127 for the first, 0.191 for the second.

First: GUCCUCUUUCACGUGCGCGUGAAAGAGAGAAGUGAACCCGACAAACACACGUUGUGGUAUAUUACCUGGUA
Second: GUCCUCUUUCACGUGCGCGUGAAAGAGAGAAGUGAACCCGAGAAACACACGUUGUGGUAUAGUACCUGGUA
The self-cleavage of the first is higher: 0.169 for the first, 0.108 for the second.

Compared with GUCCUCUUUCACGUGCGCGUGAAAGAGAGAAGUGAACCCGAGAAACACACGUUGUGGUAUAAUACCUGGUA, GUCCUCUUUCACGUGCGCGUGAAAGAGAGAAGUGAACCCGAGAAACACACGUUGUGGUAUAUUACCGGGUA is higher in self-cleavage: 0.159 for the first, 0.548 for the second.

First: GUCCUCUUUCACGUGCGCGUGAAAGAGAGAAGUGAACCUGAGAAACACACGUUGUGGUAUAUUACCCGGUA
Second: GUCCUCUUUCACGUGCGCGUGAAAGAGAGAAGUGAACCUGAGAAACACACGUUGUGGUAUAUUACCAGGUA
The self-cleavage of the first is lower: 0.286 for the first, 0.73 for the second.

First: GUCCUCUUUCACGUGCGCGUGAAAGAGAGAAGUGAACCGGCGAAACACACGUUGUGGUAUAUUACCUGGUA
Second: GUCCUCUUUCACGUGCGCGUGAAAGAGAGAAGUGAACCUGAGAAACACGCGUUGUGGUAUAUUACCUGGUA
The self-cleavage of the first is higher: 0.267 for the first, 0.169 for the second.

Going from GUCCUCUUUCACGUGCGCGUGAAAGAGAGAAGUGAACCCGAGAAACACACUUUGUGGUAUAUUACCUGGUA to GUCCUCUUUCACGUGCGCGUGAAAGAGAGAAGUGAACCGGAGAAACACAUGUUGUGGUAUAUUACCUGGUA, the self-cleavage falls from 0.64 to 0.148.

First: GUCCUCUUUCACGUGCGCGUGAAAGAGAGAAGUGAACCGGAGAAACACAAGUUGUGGUAUAUUACCUGGUA
Second: GUCCUCUUUCACGUGCGCGUGAAAGAGAGAAGUGAACCGGAGAAACACACGUUAUGGUAUAUUACCUGGUA
The self-cleavage of the first is higher: 0.196 for the first, 0.143 for the second.

First: GUCCUCUUUCACGUGCGCGUGAAAGAGAGAAGUGAACCGGAGAAACACACGUUCUGGUAUAUUACCUGGUA
Second: GUCCUCUUUCACGUGCGCGUGAAAGAGAGAAGUGAACCGGAGAACCACACGUUGUGGUAUAUUACCUGGUA
The self-cleavage of the first is higher: 0.131 for the first, 0.122 for the second.

First: GUCCUCUUUCACGUGCGCGUGAAAGAGAGAAGUGAACCGGAGAAACACACGUUGUGGUAUUUUACCUGGUA
Second: GUCCUCUUUCACGUGCGCGUGAAAGAGAGAAGUGAACCGGAGAAACACACGUUGUGGUAAAUUACCUGGUA
The self-cleavage of the first is lower: 0.152 for the first, 0.228 for the second.

First: GUCCUCUUUCACGUGCGCGUGAAAGAGAGAAGUGAACCUGAGACACACACGUUGUGGUAUAUUACCUGGUA
Second: GUCCUCUUUCACGUGCGCGUGAAAGAGAGAAGUGAACCUGAGAUACACACGUUGUGGUAUAUUACCUGGUA
The self-cleavage of the first is higher: 0.127 for the first, 0.102 for the second.

Compared with GUCCUCUUUCACGUGCGCGUGAAAGAGAGAAGUGAACCGGAGAAACACACGUUGAGGUAUAUUACCUGGUA, GUCCUCUUUCACGUGCGCGUGAAAGAGAGAAGUGAACCCGAGAAACACACGUUGCGGUAUAUUACCUGGUA is higher in self-cleavage: 0.0918 for the first, 0.188 for the second.

Compared with GUCCUCUUUCACGUGCGCGUGAAAGAGAGAAGUGAACCGCAGAAACACACGUUGUGGUAUAUUACCUGGUA, GUCCUCUUUCACGUGCGCGUGAAAGAGAGAAGUGAACCGUAGAAACACACGUUGUGGUAUAUUACCUGGUA is higher in self-cleavage: 0.0572 for the first, 0.116 for the second.

Compared with GUCCUCUUUCACGUGCGCGUGAAAGAGAGAAGUGAACCUGAGAAACACACGAUGUGGUAUAUUACCUGGUA, GUCCUCUUUCACGUGCGCGUGAAAGAGAGAAGUGAACCUGAGAAACACACGGUGUGGUAUAUUACCUGGUA is lower in self-cleavage: 0.406 for the first, 0.252 for the second.

First: GUCCUCUUUCACGUGCGCGUGAAAGAGAGAAGUGAACCCGAGAAACACACGUUGUGGCAUAUUACCUGGUA
Second: GUCCUCUUUCACGUGCGCGUGAAAGAGAGAAGUGAACCGGAGAAACACACGUUGUGGUAUAUUGCCUGGUA
The self-cleavage of the first is higher: 0.568 for the first, 0.275 for the second.

First: GUCCUCUUUCACGUGCGCGUGAAAGAGAGAAGUGAACCGGAGAAACACACGUUGUGGUAUAUUACAUGGUA
Second: GUCCUCUUUCACGUGCGCGUGAAAGAGAGAAGUGAACCGGAGAAACACACGUUGUGGUAUAUUACUUGGUA
The self-cleavage of the first is lower: 0.101 for the first, 0.194 for the second.

First: GUCCUCUUUCACGUGCGCGUGAAAGAGAGAAGUGAACCUGAGAAACUCACGUUGUGGUAUAUUACCUGGUA
Second: GUCCUCUUUCACGUGCGCGUGAAAGAGAGAAGUGAACCUGAGAAACACACGUUGUGGUAUAUUACCUGGCA
The self-cleavage of the first is lower: 0.164 for the first, 0.247 for the second.

Compared with GUCCUCUUUCACGUGCGCGUGAAAGAGAGAAGUGAACCGGAGAUACACACGUUGUGGUAUAUUACCUGGUA, GUCCUCUUUCACGUGCGCGUGAAAGAGAGAAGUGAACCCGAGAAACACACGUUGUGGUAUAUUACCUGGGA is higher in self-cleavage: 0.103 for the first, 0.232 for the second.

Compared with GUCCUCUUUCACGUGCGCGUGAAAGAGAGAAGUGAACCCGAGAAACACACGUUGUGGUAUAUUACCUGGAA, GUCCUCUUUCACGUGCGCGUGAAAGAGAGAAGUGAACCGGACAAACACACGUUGUGGUAUAUUACCUGGUA is lower in self-cleavage: 0.188 for the first, 0.129 for the second.

Compared with GUCCUCUUUCACGUGCGCGUGAAAGAGAGAAGUGAACCGGAUAAACACACGUUGUGGUAUAUUACCUGGUA, GUCCUCUUUCACGUGCGCGUGAAAGAGAGAAGUGAACCGGAGAAACAGACGUUGUGGUAUAUUACCUGGUA is lower in self-cleavage: 0.107 for the first, 0.0932 for the second.

Compared with GUCCUCUUUCACGUGCGCGUGAAAGAGAGAAGUGAACCUGAGAAACACACGUUGUGGUAUGUUACCUGGUA, GUCCUCUUUCACGUGCGCGUGAAAGAGAGAAGUGAACCUGAGAAACACACGUUGUGGUAUUUUACCUGGUA is higher in self-cleavage: 0.0916 for the first, 0.125 for the second.

First: GUCCUCUUUCACGUGCGCGUGAAAGAGAGAAGUGAACCCGAGAAACACACGAUGUGGUAUAUUACCUGGUA
Second: GUCCUCUUUCACGUGCGCGUGAAAGAGAGAAGUGAACCUGAGAAUCACACGUUGUGGUAUAUUACCUGGUA
The self-cleavage of the first is higher: 0.543 for the first, 0.142 for the second.
